Laboratory results: patent publication US11129870B2, “Compositions and methods for uncoupling TrkB receptor from PLC gamma 1 for the treatment of epilepsy and anxiety-like disorder” (DUKE UNIVERSITY, priority 2010, dated 2021)
Where no end group is shown, it is not given here. [ ]: non-standard residue; d: D form. pY = N[C@@H](Cc1ccc(OP(=O)(O)O)cc1)C(=O)O

Target: T1, TrkB-PLCγ1 binding (Mus musculus, UniProt Q62077)
T1 construct: The hippocampi were rapidly dissected on ice and homogenized in RIPA buffer; from tissue; host or cells: hippocampus of naïve C57BL/6 mice
T1 sequence (Q62077 1-1302): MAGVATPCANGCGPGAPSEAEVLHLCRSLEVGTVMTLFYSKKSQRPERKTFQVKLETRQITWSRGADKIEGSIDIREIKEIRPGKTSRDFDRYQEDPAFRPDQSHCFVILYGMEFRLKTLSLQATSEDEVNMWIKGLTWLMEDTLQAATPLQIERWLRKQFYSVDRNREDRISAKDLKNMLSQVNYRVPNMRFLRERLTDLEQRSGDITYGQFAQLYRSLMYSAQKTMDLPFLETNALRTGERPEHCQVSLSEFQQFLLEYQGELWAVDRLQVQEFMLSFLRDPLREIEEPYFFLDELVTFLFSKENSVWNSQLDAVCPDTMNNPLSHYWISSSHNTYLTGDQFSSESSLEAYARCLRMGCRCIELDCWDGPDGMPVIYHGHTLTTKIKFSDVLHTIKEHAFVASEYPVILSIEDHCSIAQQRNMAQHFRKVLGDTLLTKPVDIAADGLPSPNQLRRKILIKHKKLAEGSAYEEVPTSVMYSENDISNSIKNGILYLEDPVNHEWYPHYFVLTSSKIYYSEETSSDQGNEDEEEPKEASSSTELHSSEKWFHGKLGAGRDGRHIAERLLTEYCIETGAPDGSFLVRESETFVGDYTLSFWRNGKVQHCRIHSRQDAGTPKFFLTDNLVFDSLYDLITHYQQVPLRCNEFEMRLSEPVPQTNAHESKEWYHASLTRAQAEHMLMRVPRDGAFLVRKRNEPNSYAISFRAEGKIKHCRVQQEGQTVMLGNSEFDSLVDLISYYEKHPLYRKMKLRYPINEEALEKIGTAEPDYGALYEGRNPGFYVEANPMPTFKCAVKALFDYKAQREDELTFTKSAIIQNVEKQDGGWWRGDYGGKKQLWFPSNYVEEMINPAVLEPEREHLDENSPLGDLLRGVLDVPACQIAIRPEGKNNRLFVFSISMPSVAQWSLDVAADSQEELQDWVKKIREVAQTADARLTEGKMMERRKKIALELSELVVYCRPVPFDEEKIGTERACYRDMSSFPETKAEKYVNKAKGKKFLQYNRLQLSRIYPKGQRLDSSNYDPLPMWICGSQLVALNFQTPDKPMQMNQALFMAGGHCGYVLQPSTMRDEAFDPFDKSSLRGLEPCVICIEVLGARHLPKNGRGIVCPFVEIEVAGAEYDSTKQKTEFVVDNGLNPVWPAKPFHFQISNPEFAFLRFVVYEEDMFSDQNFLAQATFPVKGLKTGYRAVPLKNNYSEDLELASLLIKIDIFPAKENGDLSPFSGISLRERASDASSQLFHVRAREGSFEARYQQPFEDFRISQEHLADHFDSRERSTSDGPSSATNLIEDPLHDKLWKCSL
Test: Co-immunoprecipitation of TrkB and PLCγ1 from hippocampal homogenates after i.v. peptide
Type: in vivo
Conditions: 10 mg/kg i.v., 3 hr, hippocampus, compared to Scr
Experimental: Animals were anesthetized with pentobarbital (200 mg/kg i.p.) and decapitated, and the head was quickly immersed in liquid nitrogen for 4 s to rapidly cool the brain. The hippocampi were rapidly dissected on ice and homogenized in RIPA buffer, incubated on ice for 15 min, and centrifuged at 200,000×g for 10 min at 4° C. The supernatant was collected and stored at −80° C. until further analysis. TrkB was immunoprecipitated using TrkB antibody (1:1000, Millipore) and the lysates were incubated with 100 μL of protein A-Sepharose beads (Roche) overnight in 4° C. The beads/immune complexes were pelleted in a microcentrifuge and then resuspended in RIPA buffer and this procedure was repeated two additional times before adding 2×SDS PAGE sample buffer and boiled. After SDS PAGE, the gels were probed with TrkB and PLCγ1 antibody (1:1000, Cell signaling). Western blotting was conducted as previously described (He et al., 2010). Cell lysate and hippocampal homogenate were probed with p-PLCγ1 (pY783), PLCγ1, p-Akt (pS473), Akt, p-ERK (p44/p42) and ERK (1:1000, Cell signaling). The immunoreactivity of individual bands on western blots was measured by ImageJ software (National Institutes of Health) and normalized to PLCγ1, Akt or ERK contents. Equivalent protein loading among samples was monitored by β-actin (1:10000; Sigma) levels. […]

YGRKKRRQRRR-LQNLAKASPVpYLDI (YGRKKRRQRRRLQNLAKASPV[pY]LDI) [pY816]
co-immunoprecipitation of TrkB and PLCγ1: inhibited the co-immunoprecipitation of TrkB and PLCγ1
